The record followed here is paper PMC4740771, “Nucleotide-dependent assembly of the peroxisomal receptor export complex” (Scientific Reports, 2016).

As usually defined, the stoichiometry N is the number of molecules, sites or subunits per partner or assembly.

The target of series [1] is GST-Pex15p(1-315)His (S. cerevisiae) (UniProt Q08215). Kind of series: pull-down; GST-Pex15p(1-315)His incubated with purified proteins, loaded on GSH-agarose, eluted with glutathione; 5 mM ATP; Coomassie and immunoblot, signal intensities of load and eluate. (In general: In western blotting, separated proteins are transferred to a membrane and probed.)
Series [2] has as its target Pex15p(1-315)His (GST removed by thrombin) (S. cerevisiae) (UniProt Q08215). Kind of series: SEC; Pex1/6p/Pex15p complex isolated on GSH-agarose, released by thrombin (GST left on the column), Superose 6 (small-scale and preparative) in presence of ATP; anti-His immunoblot or Coomassie, signal intensities by ImageJ. For orientation: In gel filtration, larger molecules generally elute earlier.

Series [3] shares this target. Kind of series: SEC; 700 kDa fractions of the Pex1/6p/Pex15p complexes pooled, kept 72 h on ice (4 °C), then size exclusion again; anti-His immunoblot, signal intensities.
For series [4] the target is unchanged. Briefly: SEC; as a8 but 2.5 mM ATPγS added during thrombin incubation of the wild-type complex.
Series [5] deals with the molecule itself. Briefly: SEC; second gel filtration of the purified heterohexameric complexes after incubation at 37 °C.
Series [6] addresses T1, Pex15p(1-315)His (GST removed by thrombin) (S. cerevisiae, UniProt Q08215 1-315).
T1 construct: Pex15p of S. cerevisiae, cytosolic part, residues 1 to 315; Same construct as m10 after thrombin cleavage; detected by anti-His antibodies; Printed mass 36 kDa; alone it eluted at about 100 kDa; also called Pex15pHis; source: E. coli BL21 (DE3), purified (Glutathione Agarose 4B), released from GSH-agarose by thrombin; not shown: GST, N-terminal, cleaved; His6, C-terminal, kept
T1 sequence (looked up): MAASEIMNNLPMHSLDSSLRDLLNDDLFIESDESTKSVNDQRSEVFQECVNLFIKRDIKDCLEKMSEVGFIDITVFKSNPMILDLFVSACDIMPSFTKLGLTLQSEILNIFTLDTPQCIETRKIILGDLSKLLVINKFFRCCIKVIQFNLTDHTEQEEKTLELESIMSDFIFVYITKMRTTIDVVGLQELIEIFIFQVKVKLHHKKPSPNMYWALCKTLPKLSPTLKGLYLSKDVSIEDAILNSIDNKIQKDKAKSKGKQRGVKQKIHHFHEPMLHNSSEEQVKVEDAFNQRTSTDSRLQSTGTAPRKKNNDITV
Kind of series: SEC; Pex1/6p/Pex15p complex isolated on GSH-agarose, released by thrombin (GST left on the column), Superose 6 (small-scale and preparative) in presence of ATP; anti-His immunoblot or Coomassie, signal intensities by ImageJ. Conditions: both partners purified.

Series [7] addresses T2, HisPex1p released from HisPex1pGST by thrombin (S. cerevisiae, UniProt P24004 1-1043).
T2 construct: Pex1p, type II AAA-ATPase peroxin of yeast; The GST tag held the complex on GSH-agarose during purification and stayed on the column after thrombin cleavage; source: E. coli Tuner (DE3), co-purified with HisPex6p (NiNTA-agarose, GSH-agarose, thrombin release); not shown: His6, N-terminal, kept; GST, C-terminal, cleaved
T2 sequence (looked up): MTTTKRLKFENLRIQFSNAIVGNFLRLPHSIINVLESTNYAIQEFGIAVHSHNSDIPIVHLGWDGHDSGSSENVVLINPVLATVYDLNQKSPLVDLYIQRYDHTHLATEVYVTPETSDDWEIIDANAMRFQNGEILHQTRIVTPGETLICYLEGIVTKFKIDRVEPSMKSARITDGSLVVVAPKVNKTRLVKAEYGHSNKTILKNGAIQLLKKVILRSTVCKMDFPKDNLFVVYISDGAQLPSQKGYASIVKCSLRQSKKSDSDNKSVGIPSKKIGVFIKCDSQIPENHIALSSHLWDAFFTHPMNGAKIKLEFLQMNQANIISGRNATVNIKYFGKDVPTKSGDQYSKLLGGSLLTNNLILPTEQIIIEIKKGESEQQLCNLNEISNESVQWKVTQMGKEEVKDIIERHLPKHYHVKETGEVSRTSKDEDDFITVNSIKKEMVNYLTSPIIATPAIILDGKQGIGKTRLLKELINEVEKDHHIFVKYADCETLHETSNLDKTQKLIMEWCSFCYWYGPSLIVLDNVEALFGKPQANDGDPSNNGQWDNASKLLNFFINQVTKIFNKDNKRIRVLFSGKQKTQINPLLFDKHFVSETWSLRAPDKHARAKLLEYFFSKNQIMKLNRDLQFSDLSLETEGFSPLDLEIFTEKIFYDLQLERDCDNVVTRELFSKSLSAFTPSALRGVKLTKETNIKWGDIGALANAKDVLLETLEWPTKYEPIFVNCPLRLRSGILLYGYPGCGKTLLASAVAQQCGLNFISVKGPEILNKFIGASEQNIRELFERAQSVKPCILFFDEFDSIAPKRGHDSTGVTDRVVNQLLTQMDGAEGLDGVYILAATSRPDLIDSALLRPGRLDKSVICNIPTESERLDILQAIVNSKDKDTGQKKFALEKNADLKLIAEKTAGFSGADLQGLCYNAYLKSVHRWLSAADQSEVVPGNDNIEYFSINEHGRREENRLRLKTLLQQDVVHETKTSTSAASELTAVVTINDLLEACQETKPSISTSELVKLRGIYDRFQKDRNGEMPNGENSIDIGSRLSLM
The description is as above. The note with it: both partners purified.

Bounds are passed on as bounds.

With “Pex1/6p-complex (recombinant heterohexameric AAA-complex), P24004 1-1043; P33760 1-1030”, the fold binding against single Pex6p in series [1] was determined as 3 fold. In addition, the stoichiometry N (Pex15p per Pex1p of the complex) in series [2] stood at 0.9. Moreover, in series [2] (scale: Pex15p per heterohexameric Pex1/6p complex), the stoichiometry N came out at 3. Further, the percent of Pex15p still bound after 72 h in series [3] was below 10%; in series [4], 20%.
Regarding “Pex1/6pWB complex (wild-type Pex1p with Pex6p E832Q), P24004 1-1043; P33760 1-1030”, the stoichiometry N (Pex15p per Pex1p of the complex) in series [2] was 0.9. In addition, the percent of Pex15p still bound after 72 h in series [3] turned out to be 40%.

B1: HisPex1p(D797N) released from its GST fusion (natural protein, S. cerevisiae, UniProt P24004 1-1043, looked up)
chain: MTTTKRLKFENLRIQFSNAIVGNFLRLPHSIINVLESTNYAIQEFGIAVHSHNSDIPIVHLGWDGHDSGSSENVVLINPVLATVYDLNQKSPLVDLYIQRYDHTHLATEVYVTPETSDDWEIIDANAMRFQNGEILHQTRIVTPGETLICYLEGIVTKFKIDRVEPSMKSARITDGSLVVVAPKVNKTRLVKAEYGHSNKTILKNGAIQLLKKVILRSTVCKMDFPKDNLFVVYISDGAQLPSQKGYASIVKCSLRQSKKSDSDNKSVGIPSKKIGVFIKCDSQIPENHIALSSHLWDAFFTHPMNGAKIKLEFLQMNQANIISGRNATVNIKYFGKDVPTKSGDQYSKLLGGSLLTNNLILPTEQIIIEIKKGESEQQLCNLNEISNESVQWKVTQMGKEEVKDIIERHLPKHYHVKETGEVSRTSKDEDDFITVNSIKKEMVNYLTSPIIATPAIILDGKQGIGKTRLLKELINEVEKDHHIFVKYADCETLHETSNLDKTQKLIMEWCSFCYWYGPSLIVLDNVEALFGKPQANDGDPSNNGQWDNASKLLNFFINQVTKIFNKDNKRIRVLFSGKQKTQINPLLFDKHFVSETWSLRAPDKHARAKLLEYFFSKNQIMKLNRDLQFSDLSLETEGFSPLDLEIFTEKIFYDLQLERDCDNVVTRELFSKSLSAFTPSALRGVKLTKETNIKWGDIGALANAKDVLLETLEWPTKYEPIFVNCPLRLRSGILLYGYPGCGKTLLASAVAQQCGLNFISVKGPEILNKFIGASEQNIRELFERAQSVKPCILFFNEFDSIAPKRGHDSTGVTDRVVNQLLTQMDGAEGLDGVYILAATSRPDLIDSALLRPGRLDKSVICNIPTESERLDILQAIVNSKDKDTGQKKFALEKNADLKLIAEKTAGFSGADLQGLCYNAYLKSVHRWLSAADQSEVVPGNDNIEYFSINEHGRREENRLRLKTLLQQDVVHETKTSTSAASELTAVVTINDLLEACQETKPSISTSELVKLRGIYDRFQKDRNGEMPNGENSIDIGSRLSLM
notes: Pex1p of yeast with a mutation of the aspartate of the Walker B motif of the D2 domain; also called Pex1WB^D797N; Pex1pWB^D797N; not shown: His6, N-terminal, kept; GST, C-terminal, cleaved
For the molecule B1, in series [5], the “stoichiometry N” value turned out to be 3.

B2: HisPex6p(E832Q) (natural protein, S. cerevisiae, UniProt P33760 1-1030, looked up)
chain: MKASLTFSLSGIYAPCSISRDIYLEYGDKKAECLYGTIRLPQYGPGCTPGKIVHCVLDDSLPFCSIVVPSKLFGFMPTQPTMDFCYFEPILDNVVPVLDSVTFLINEQLYSKLMDLPQEMQQIQFLHYKYNINSMETVVHSRDILTSGLCQILNCSPFPQGLVDFTETQLILVNDTEQKLSALKYANEDEEYALPKIGTNSALSIDLESLPCTISRDLLRPAPHINDDNSIYAFTDAETLLRLDVTSGSFITVSNMGCVRLVKLFVLLLPNGFKKRTIYAPPKIIASFPDCSVVTISKSNIGHTDIPIANQVFISRVGGWLQSQKCFQNIILTTLKKFFSESKRILCQNDLIPIAFDSSMADLNIAEENDESDDEDELGQYYKNDSLVWFFVTSAELDCFSKDNSHFIIDPNRTKLITTNITNRRPLPLSRSNLQRYYGFAETFYYDLHIFPYVRQLVNILETSFNCSQRGITLNASVLLHSTTNNVGKATMVRFASKYLGIHLLEIDCLSLTSNSRQLDSTSKIIGYIRAKCENVLPYASPAVIFLAHLDSILLDVNANQDPEAIKLQKSINFEMSKLLDDFTFKFPGTTFVGSVNNIDNVPSSFRSHMRFEILVPVPSEAQRLRIFQWYLSSHELNRDVQQKVPVSYMDNISFSSLSSYSAGLTPLDIKSIVETARMTATARFYQESKKCGWLPQSILITQEDLSKATSKARNEFSVSIGAPQIPNVTWDDIGGIDFVKGEILDTIDMPLKHPELFTSGMKKRSGILFYGPPGTGKTLMAKAIATNFSLNFFSVKGPELLNMYIGESEANVRRVFQKAREAKPCVIFFDQIDSVAPKRGNQGDSGGVMDRIVSQLLAELDGMSTDADGVFVIGATNRPDLLDEALLRPGRFDKLLYLGIPDTDTKQLNILEALTRKFVLDNDVKLIELAKLCPFNYTGADFYALCSDAMLNAMSRIARMVEKKVSQHNELTGENISTRRWFDKIATKEDTKVVVKMEDFLKAQEQLTPSVSRAELNHYEAVRANFEGA
notes: Pex6p of yeast with the Walker B mutation of the D2 domain; also called Pex6pWB; PEX6WB^E832Q; source: E. coli Tuner (DE3), co-purified with HisPex1pGST; not shown: His6, N-terminal, kept
As to B2, the “stoichiometry N” value in series [6] came to 1 Pex15p per Pex6p; in series [7] it was 0.9 Pex6p per Pex1p.
